Where “and” joins values, the source holds several entries; their conditions need not be identical. Identical values can stand only once.
What was measured:
[1] = target: T1, human B-lymphocyte antigen CD19 (human, UniProt P15391 20-556); experiment: cell-based or functional assay
T1 sequence (looked up): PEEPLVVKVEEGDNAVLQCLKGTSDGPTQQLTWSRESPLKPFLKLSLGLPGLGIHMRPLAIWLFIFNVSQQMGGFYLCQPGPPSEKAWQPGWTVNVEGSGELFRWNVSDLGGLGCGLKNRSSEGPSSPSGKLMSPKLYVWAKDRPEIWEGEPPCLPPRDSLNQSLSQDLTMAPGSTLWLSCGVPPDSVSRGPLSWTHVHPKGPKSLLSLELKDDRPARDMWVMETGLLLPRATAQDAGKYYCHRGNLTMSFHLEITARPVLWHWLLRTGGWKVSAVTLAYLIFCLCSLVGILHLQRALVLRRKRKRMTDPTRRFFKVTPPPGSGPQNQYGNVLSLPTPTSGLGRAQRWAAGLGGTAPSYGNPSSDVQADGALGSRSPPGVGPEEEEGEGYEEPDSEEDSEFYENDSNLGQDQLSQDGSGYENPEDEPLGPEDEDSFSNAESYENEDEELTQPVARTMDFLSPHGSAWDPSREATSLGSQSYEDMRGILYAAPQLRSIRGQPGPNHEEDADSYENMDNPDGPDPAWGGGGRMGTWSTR

mouse CD19 = target: T2, mouse CD19 (mouse, UniProt P25918 19-547); experiment: FACS on B-cells of the respective species
T2 construct: whole, on cells
T2 sequence (looked up): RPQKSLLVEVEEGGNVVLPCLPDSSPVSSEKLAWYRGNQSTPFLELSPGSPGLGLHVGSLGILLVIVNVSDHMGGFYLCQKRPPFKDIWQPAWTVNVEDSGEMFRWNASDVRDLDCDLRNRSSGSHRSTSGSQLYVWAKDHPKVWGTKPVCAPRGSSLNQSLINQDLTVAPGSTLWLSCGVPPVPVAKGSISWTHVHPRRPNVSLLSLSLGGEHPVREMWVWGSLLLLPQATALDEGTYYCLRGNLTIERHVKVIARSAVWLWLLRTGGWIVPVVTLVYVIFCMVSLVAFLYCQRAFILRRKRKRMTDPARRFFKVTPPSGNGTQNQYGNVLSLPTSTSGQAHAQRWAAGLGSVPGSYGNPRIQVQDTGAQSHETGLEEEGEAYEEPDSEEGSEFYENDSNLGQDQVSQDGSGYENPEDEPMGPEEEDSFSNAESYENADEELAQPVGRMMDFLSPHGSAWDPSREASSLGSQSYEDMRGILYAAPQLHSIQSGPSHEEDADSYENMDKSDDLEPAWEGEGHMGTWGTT

cynomolgus CD19 = target: T3, cynomolgus CD19 (cynomolgus, UniProt A0A2K5W8L9 20-557); experiment: FACS on B-cells of the respective species
T3 construct: whole, on cells
T3 sequence: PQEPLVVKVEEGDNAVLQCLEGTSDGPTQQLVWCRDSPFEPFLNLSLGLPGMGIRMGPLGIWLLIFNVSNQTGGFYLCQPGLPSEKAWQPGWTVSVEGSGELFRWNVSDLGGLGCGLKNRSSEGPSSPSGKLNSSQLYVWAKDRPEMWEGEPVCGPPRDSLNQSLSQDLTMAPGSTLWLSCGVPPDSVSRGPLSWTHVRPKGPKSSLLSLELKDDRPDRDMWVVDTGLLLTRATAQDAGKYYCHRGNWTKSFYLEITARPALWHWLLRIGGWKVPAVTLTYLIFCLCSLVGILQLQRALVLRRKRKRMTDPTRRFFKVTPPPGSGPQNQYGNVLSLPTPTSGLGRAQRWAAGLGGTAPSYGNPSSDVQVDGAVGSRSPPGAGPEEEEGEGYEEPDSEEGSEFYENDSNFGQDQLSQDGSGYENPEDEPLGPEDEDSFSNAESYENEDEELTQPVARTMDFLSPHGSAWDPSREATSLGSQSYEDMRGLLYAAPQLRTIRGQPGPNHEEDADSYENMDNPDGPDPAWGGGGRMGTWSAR

rabbit CD19 = target: T4, rabbit CD19 (rabbit, UniProt G1TWR4 20-543); experiment: FACS on B-cells of the respective species
T4 construct: whole, on cells
T4 sequence: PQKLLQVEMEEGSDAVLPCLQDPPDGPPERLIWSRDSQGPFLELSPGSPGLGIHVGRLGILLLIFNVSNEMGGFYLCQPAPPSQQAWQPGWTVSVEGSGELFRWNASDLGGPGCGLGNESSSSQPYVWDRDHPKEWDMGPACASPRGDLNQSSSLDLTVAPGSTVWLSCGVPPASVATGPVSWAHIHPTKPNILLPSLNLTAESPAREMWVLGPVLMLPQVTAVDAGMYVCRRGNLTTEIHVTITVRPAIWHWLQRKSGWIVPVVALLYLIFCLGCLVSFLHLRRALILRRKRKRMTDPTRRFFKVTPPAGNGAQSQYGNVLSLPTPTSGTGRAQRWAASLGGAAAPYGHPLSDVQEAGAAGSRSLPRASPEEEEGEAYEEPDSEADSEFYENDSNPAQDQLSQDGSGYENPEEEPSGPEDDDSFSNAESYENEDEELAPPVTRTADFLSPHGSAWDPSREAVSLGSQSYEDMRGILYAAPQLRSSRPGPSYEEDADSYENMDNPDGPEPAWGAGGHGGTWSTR

[2] = target: T1, human B-lymphocyte antigen CD19; experiment: FACS binding on Daudi cells, goat anti-mouse RPE detection
[3] = target: T1, human B-lymphocyte antigen CD19; experiment: cell ELISA on human CD19-transfected NIH3T3 cells against untransfected NIH3T3 cells

B1: Mab381 (antibody, V domains shown)
VH: QVQLQQSGAELVRPGSSMKISCKASGYAFSSYWMNWVKQRPGQGLEWIGQIYPGDGDINYSGKFKGKVTLTADKSSSTAYMQLSSLTSEDSAVYFCARTITTVVGYVMDYWGQGTSVTVSS
VL: DIVMTQSHKFMSTSVGDRVSITCKASQDVGTVVAWYQQKPGQSPKLLIYWASTRHTGVPDRFTGSGSGTDFTLTISNVQSEDLADYFCQQYSSYPYTFGGGTKLEIKR
notes: Murine monoclonal antibody purified from hybridoma 8C3
Question: How did the “EC50 of inhibition of Ca2+ influx in anti-IgM activated Ramos cells” value [1] turn out when B1 was run?
Answer: 0.37 nM and 56 ng/ml

Question: Does B1 bind (mouse CD19)?
Answer: no binding

Question: Does B1 bind (cynomolgus CD19)?
Answer: no binding

Question: Does B1 bind (rabbit CD19)?
Answer: no binding

Question: And the EC50 [2]?
Answer: 1.45 nM

Question: And the “ratio OD NIH3T3 CD 19 to OD NIH3T3 untransfected” value [3]?
Answer: 11.4

Reference: patent publication WO2011147834A1 (dated 2011)
